# System: Escherichia coli TOP10
# Assay: shrunken log2 fold change of peptide-encoding DNA abundance (4.5 h post-induction vs induction); higher = less antimicrobial activity (less host growth inhibition)
# Details: time post-induction: 4.5 h; library: site-saturation at positions 5, 18, 19, 20
# 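Note: peptides expressed intracellularly from a pBAD plasmid library in pooled LB shake-flask culture, induced with 0.3% L-arabinose, DNA abundance read by NGS, three biological replicates, DESeq2 with apeglm shrinkage.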
row,Sequence,shrunken log2 fold change
1,RRIRERPPRLPRPRPRPPEAPRP,0.192
2,RRIRERPPRLPRPRPRPPFCPRP,0.117
3,RRIRERPPRLPRPRPRPPHCPRP,0.118
4,RRIRERPPRLPRPRPRPPIGPRP,-0.144
5,RRIRERPPRLPRPRPRPPINPRP,-0.224
6,RRIRERPPRLPRPRPRPPKFPRP,-0.0978
7,RRIRERPPRLPRPRPRPPLRPRP,0.135
8,RRIRERPPRLPRPRPRPPNAPRP,0.186
9,RRIRERPPRLPRPRPRPPNHPRP,-0.288
10,RRIRERPPRLPRPRPRPPNRPRP,-0.289
11,RRIRERPPRLPRPRPRPPRKPRP,0.387
12,RRIRERPPRLPRPRPRPPSMPRP,-0.242
13,RRIRERPPRLPRPRPRPPTEPRP,0.0778
14,RRIRERPPRLPRPRPRPPTGPRP,0.161
15,RRIRERPPRLPRPRPRPPVYPRP,0.00394
16,RRIRERPPRLPRPRPRPPWQPRP,0.0988
17,RRIRERPPRLPRPRPRPPWTPRP,-0.0555
18,RRIRERPPRLPRPRPRPPYAPRP,-0.208
19,RRIRERPPRLPRPRPRPQAGPRP,0.275
20,RRIRERPPRLPRPRPRPQCQPRP,0.158
21,RRIRERPPRLPRPRPRPQCRPRP,-0.401
22,RRIRERPPRLPRPRPRPQDEPRP,-0.941

row,Sequence,shrunken log2 fold change
1,RRIRERPPRLPRPRPRPQDKPRP,-0.0918
2,RRIRERPPRLPRPRPRPQDTPRP,2.38
3,RRIRERPPRLPRPRPRPQELPRP,-0.755
4,RRIRERPPRLPRPRPRPQEYPRP,-0.01
5,RRIRERPPRLPRPRPRPQGAPRP,0.169
6,RRIRERPPRLPRPRPRPQHWPRP,-0.046
7,RRIRERPPRLPRPRPRPQIKPRP,-0.723
8,RRIRERPPRLPRPRPRPQLIPRP,-0.759
9,RRIRERPPRLPRPRPRPQNIPRP,-0.837
10,RRIRERPPRLPRPRPRPQNNPRP,-0.911
11,RRIRERPPRLPRPRPRPQPEPRP,-0.0263
12,RRIRERPPRLPRPRPRPQQHPRP,-0.301
13,RRIRERPPRLPRPRPRPQRFPRP,0.0827
14,RRIRERPPRLPRPRPRPQRGPRP,-0.0773
15,RRIRERPPRLPRPRPRPQSAPRP,-0.227
16,RRIRERPPRLPRPRPRPQSSPRP,-0.533
17,RRIRERPPRLPRPRPRPQWGPRP,-0.252
18,RRIRERPPRLPRPRPRPRAYPRP,-0.125
19,RRIRERPPRLPRPRPRPRDGPRP,0.237
20,RRIRERPPRLPRPRPRPREAPRP,0.419
21,RRIRERPPRLPRPRPRPREFPRP,-0.0736
22,RRIRERPPRLPRPRPRPRENPRP,-0.362

row,Sequence,shrunken log2 fold change
1,RRIRERPPRLPRPRPRPRFWPRP,0.549
2,RRIRERPPRLPRPRPRPRHIPRP,-0.643
3,RRIRERPPRLPRPRPRPRKCPRP,-0.0265
4,RRIRERPPRLPRPRPRPRKHPRP,0.0582
5,RRIRERPPRLPRPRPRPRLRPRP,0.25
6,RRIRERPPRLPRPRPRPRLVPRP,-0.0143
7,RRIRERPPRLPRPRPRPRMFPRP,0.00669
8,RRIRERPPRLPRPRPRPRNDPRP,-0.478
9,RRIRERPPRLPRPRPRPRNVPRP,-0.00139
10,RRIRERPPRLPRPRPRPRNYPRP,-0.491
11,RRIRERPPRLPRPRPRPRPFPRP,-0.0965
12,RRIRERPPRLPRPRPRPRRQPRP,0.00864
13,RRIRERPPRLPRPRPRPRRYPRP,-0.184
14,RRIRERPPRLPRPRPRPRTVPRP,0.0995
15,RRIRERPPRLPRPRPRPRVLPRP,0.161
16,RRIRERPPRLPRPRPRPRVTPRP,0.107
17,RRIRERPPRLPRPRPRPRWEPRP,0.0891
18,RRIRERPPRLPRPRPRPRYHPRP,-0.0105
19,RRIRERPPRLPRPRPRPRYTPRP,-0.244
20,RRIRERPPRLPRPRPRPSCHPRP,-0.934
21,RRIRERPPRLPRPRPRPSDCPRP,0.00151
22,RRIRERPPRLPRPRPRPSDWPRP,0.0574

row,Sequence,shrunken log2 fold change
1,RRIRERPPRLPRPRPRPSEEPRP,-0.0988
2,RRIRERPPRLPRPRPRPSEIPRP,-0.16
3,RRIRERPPRLPRPRPRPSEPPRP,0.227
4,RRIRERPPRLPRPRPRPSFCPRP,-0.593
5,RRIRERPPRLPRPRPRPSFGPRP,0.189
6,RRIRERPPRLPRPRPRPSFRPRP,-0.431
7,RRIRERPPRLPRPRPRPSGDPRP,-0.253
8,RRIRERPPRLPRPRPRPSGVPRP,-0.157
9,RRIRERPPRLPRPRPRPSISPRP,0.0881
10,RRIRERPPRLPRPRPRPSKAPRP,-0.129
11,RRIRERPPRLPRPRPRPSLIPRP,-2.26
12,RRIRERPPRLPRPRPRPSMGPRP,-0.817
13,RRIRERPPRLPRPRPRPSMIPRP,-0.171
14,RRIRERPPRLPRPRPRPSMLPRP,-0.938
15,RRIRERPPRLPRPRPRPSNVPRP,-0.441
16,RRIRERPPRLPRPRPRPSNYPRP,-1.12
17,RRIRERPPRLPRPRPRPSPHPRP,-0.229
18,RRIRERPPRLPRPRPRPSQSPRP,-0.346
19,RRIRERPPRLPRPRPRPSQYPRP,-0.113
20,RRIRERPPRLPRPRPRPSRKPRP,0.113
21,RRIRERPPRLPRPRPRPSSEPRP,-0.137
22,RRIRERPPRLPRPRPRPSTQPRP,-0.177

row,Sequence,shrunken log2 fold change
1,RRIRERPPRLPRPRPRPSVVPRP,-0.213
2,RRIRERPPRLPRPRPRPSVWPRP,0.0602
3,RRIRERPPRLPRPRPRPSWDPRP,-0.247
4,RRIRERPPRLPRPRPRPSWWPRP,2.26
5,RRIRERPPRLPRPRPRPTAMPRP,0.109
6,RRIRERPPRLPRPRPRPTARPRP,0.258
7,RRIRERPPRLPRPRPRPTDRPRP,0.0616
8,RRIRERPPRLPRPRPRPTESPRP,5.08
9,RRIRERPPRLPRPRPRPTEYPRP,-0.123
10,RRIRERPPRLPRPRPRPTFAPRP,-0.0119
11,RRIRERPPRLPRPRPRPTFGPRP,0.0107
12,RRIRERPPRLPRPRPRPTFNPRP,-0.24
13,RRIRERPPRLPRPRPRPTFRPRP,-0.00937
14,RRIRERPPRLPRPRPRPTFSPRP,-0.216
15,RRIRERPPRLPRPRPRPTHRPRP,0.243
16,RRIRERPPRLPRPRPRPTISPRP,-0.163
17,RRIRERPPRLPRPRPRPTKSPRP,-0.00427
18,RRIRERPPRLPRPRPRPTKYPRP,-0.568
19,RRIRERPPRLPRPRPRPTMDPRP,0.0537
20,RRIRERPPRLPRPRPRPTNLPRP,-0.0315
21,RRIRERPPRLPRPRPRPTNSPRP,-0.782

# Reference: the supplement of paper PMC9112550, “Optimization of the antimicrobial peptide Bac7 by deep mutational scanning” (BMC Biology, 2022)
